Tests used:
[1] = target: MMP-9 catalytic domain (Homo sapiens) (UniProt P14780); conditions: cited from earlier work
[2] = target: HD_(N-TIMP2,V3) bi-specific heterodimer (N-TIMP2 fused by a linker to V3, the engineered soluble extracellular domain of the IL-17A receptor, with human IgG1 Fc and 6xHis); assay: BLI; Octet Red; HD_(N-TIMP2,V3) or V3 loaded on Protein A sensors (10 ug/ml, 300 s); IL-17A or MMP-9CAT in solution at 50, 100, 200 nM; 300 s association, 1800-2500 s dissociation; 30 C; PBS, 1% BSA, 0.05% Tween; 1:1 binding model
[3] = target: V3, soluble IL-17RA (extracellular domain of the IL-17A receptor with point mutations that increase affinity for IL-17A); assay: as above

Chain of IL-17A (interleukin-17A) (Q16552 24-155): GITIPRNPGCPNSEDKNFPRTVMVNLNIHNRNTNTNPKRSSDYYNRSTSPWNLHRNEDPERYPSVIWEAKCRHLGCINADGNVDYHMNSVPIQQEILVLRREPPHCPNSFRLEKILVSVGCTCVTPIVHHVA
Chain of MMP-9 catalytic domain (Homo sapiens) (P14780 107-443): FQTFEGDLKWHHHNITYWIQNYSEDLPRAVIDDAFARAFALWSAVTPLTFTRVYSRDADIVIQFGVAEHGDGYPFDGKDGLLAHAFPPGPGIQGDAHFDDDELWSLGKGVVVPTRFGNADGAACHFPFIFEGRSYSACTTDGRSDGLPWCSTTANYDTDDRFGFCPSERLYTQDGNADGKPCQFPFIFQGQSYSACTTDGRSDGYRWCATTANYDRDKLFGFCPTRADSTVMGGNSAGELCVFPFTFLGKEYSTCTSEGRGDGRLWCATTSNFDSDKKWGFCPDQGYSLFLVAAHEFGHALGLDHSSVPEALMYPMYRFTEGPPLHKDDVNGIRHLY
Chain of N-TIMP2 N-terminal domain (P16035 27-153): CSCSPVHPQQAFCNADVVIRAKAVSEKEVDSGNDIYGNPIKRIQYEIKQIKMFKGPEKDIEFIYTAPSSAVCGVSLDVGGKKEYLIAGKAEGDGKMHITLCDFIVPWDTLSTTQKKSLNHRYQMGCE

Kd [2] | Kd [3] | Substance | Ki [1]
– | – | N-TIMP2 N-terminal domain (from UniProt P16035) | 100 pM
48 pM | 122 pM | IL-17A (interleukin-17A) (from UniProt Q16552 24-155) (ligand) | –

From paper PMC6033355
